Data set [1] concerns the target T1, wtp53 (full-length wild-type p53) (Homo sapiens, UniProt P04637 1-393). The data set is described as follows: EMSA; 50 mM KCl; EMSA: 5 mM Tris pH 7.6, 0.5 mM EDTA, 0.01% Triton X-100, 50 mM KCl, 0.5 mM DTT, on ice 20 min (30 min for plasmids); oligo EMSA with 50 ng BSA and 2.5-20 ng pBSK/EcoRV competitor. The settings on record: protein: recombinant, chain copies: 4, label: 5' 32P. On the technique in general: A gel shift assay detects complexes by their altered migration in electrophoresis.

For data set [2], the target named is T1, wtp53 (full-length wild-type p53). The data set is described as follows: EMSA; 50 mM KCl; comparable to P1-22, lower than Pu52; EMSA: 5 mM Tris pH 7.6, 0.5 mM EDTA, 0.01% Triton X-100, 50 mM KCl, 0.5 mM DTT, on ice 20 min (30 min for plasmids); oligo EMSA with 50 ng BSA and 2.5-20 ng pBSK/EcoRV competitor. The settings on record: protein: recombinant; chain copies: 4; label: 5' 32P; parallel G4, 1:2:1 loops, annealed in 50 mM KCl.

For data set [3] the target is unchanged. The data set is described as follows: EMSA; 50 mM KCl; comparable to P1-30, lower than Pu52; EMSA: 5 mM Tris pH 7.6, 0.5 mM EDTA, 0.01% Triton X-100, 50 mM KCl, 0.5 mM DTT, on ice 20 min (30 min for plasmids); oligo EMSA with 50 ng BSA and 2.5-20 ng pBSK/EcoRV competitor. The following applies: protein: recombinant; chain copies: 4; label: 5' 32P; parallel G4, annealed in 50 mM KCl.

For the next data set, the target named is p53CΔ30 (Homo sapiens, UniProt P04637 1-363). The data set is described as follows: EMSA; 50 mM KCl; EMSA: 5 mM Tris pH 7.6, 0.5 mM EDTA, 0.01% Triton X-100, 50 mM KCl, 0.5 mM DTT, on ice 20 min (30 min for plasmids); oligo EMSA with 50 ng BSA and 2.5-20 ng pBSK/EcoRV competitor. The following applies: protein: recombinant; chain copies: 4; label: 5' 32P; blunt.
Chain of p53CΔ30 (P04637 1-363, stated change not applied): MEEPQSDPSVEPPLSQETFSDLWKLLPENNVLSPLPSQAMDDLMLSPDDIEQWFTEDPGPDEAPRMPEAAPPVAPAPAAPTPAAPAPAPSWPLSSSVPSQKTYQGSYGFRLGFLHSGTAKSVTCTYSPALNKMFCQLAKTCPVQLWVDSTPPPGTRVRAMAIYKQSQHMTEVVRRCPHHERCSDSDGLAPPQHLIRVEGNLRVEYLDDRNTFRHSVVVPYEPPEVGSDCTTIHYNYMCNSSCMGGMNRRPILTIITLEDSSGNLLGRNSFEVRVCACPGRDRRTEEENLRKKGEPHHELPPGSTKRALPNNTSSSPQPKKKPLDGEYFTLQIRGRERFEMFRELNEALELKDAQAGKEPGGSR

Data set [4] deals with p53CD (GSTp53CD, central DBD) (Homo sapiens, UniProt P04637 94-312). The description is as above. The settings on record: protein: recombinant; tags: GST; chain copies: 4; label: 5' 32P; blunt.
Chain of p53CD (GSTp53CD, central DBD) (P04637 94-312): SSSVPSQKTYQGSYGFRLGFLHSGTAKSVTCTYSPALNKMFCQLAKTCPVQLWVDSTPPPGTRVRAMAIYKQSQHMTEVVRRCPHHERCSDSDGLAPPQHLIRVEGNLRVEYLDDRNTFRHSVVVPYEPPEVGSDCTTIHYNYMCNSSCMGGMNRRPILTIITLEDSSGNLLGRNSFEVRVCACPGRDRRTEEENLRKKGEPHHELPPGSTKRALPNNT
Another data set addresses p53CT (GSTp53CT) (Homo sapiens, UniProt P04637 320-393). Described as above. The following applies: protein: recombinant; tags: GST; chain copies: 4; label: 5' 32P; parallel G4, 1:2:1 loops, annealed in 50 mM KCl.
The target in data set [5] is T1, wtp53 (full-length wild-type p53). Description: EMSA; 50 mM KCl; comparable to P1-50; EMSA: 5 mM Tris pH 7.6, 0.5 mM EDTA, 0.01% Triton X-100, 50 mM KCl, 0.5 mM DTT, on ice 20 min (30 min for plasmids); oligo EMSA with 50 ng BSA and 2.5-20 ng pBSK/EcoRV competitor. The settings on record: protein: recombinant; chain copies: 4; label: 5' 32P; parallel G4, 1:2:1 loops, annealed in 50 mM KCl.

T1 sequence (P04637 whole entry): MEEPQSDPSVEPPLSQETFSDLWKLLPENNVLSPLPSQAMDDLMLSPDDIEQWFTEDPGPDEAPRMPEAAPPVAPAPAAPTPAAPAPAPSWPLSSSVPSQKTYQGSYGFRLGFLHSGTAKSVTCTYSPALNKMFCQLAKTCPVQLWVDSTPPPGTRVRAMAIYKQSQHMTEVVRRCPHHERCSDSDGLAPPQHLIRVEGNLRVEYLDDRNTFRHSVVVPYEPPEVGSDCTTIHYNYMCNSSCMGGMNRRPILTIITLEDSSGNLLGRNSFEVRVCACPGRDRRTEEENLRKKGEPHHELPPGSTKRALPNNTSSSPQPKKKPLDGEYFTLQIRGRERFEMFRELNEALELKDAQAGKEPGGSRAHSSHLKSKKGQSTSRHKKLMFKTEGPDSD
Chain of p53CT (GSTp53CT) (P04637 320-393): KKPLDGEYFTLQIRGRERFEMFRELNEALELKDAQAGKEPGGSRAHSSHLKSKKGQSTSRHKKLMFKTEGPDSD

B1: A50 (ssDNA)
DNA: AAAAAAAAAAAAAAAAAAAAAAAAAAAAAAAAAAAAAAAAAAAAAAAAAA
Consider B1, for which the binding result in data set [1] is on record as “no binding”.

B2: Pu22 (structured_DNA)
DNA: TGAGGGTGGGGAGGGTGGGGAA
On to B2, for which the binding result in data set [2] was “binds”.

B3: Pu33 (structured_DNA)
DNA: TGGGGAGGGTGGGGAGGGTGGGGAAGGTGGGGA
As for B3, the binding result in data set [3] was “binds”.

B4: P1-40 (dsDNA)
DNA 1: GATCGATAAGAGACATGCCTAGACATGCCTCTTGATATCG
DNA 2: CGATATCAAGAGGCATGTCTAGGCATGTCTCTTATCGATC
As for B4, the binding result (with p53CΔ30; in data set [1] (blunt); in data set [4]) was “binds” each time.

B5: P1-30 (dsDNA)
DNA 1: GTAAGAGACATGCCTAGACATGCCTCATCG
DNA 2: CGATGAGGCATGTCTAGGCATGTCTCTTAC
For the molecule B5, the binding result in data set [1] (blunt) and in data set [4] was “binds” throughout.

B6: P1-50 (dsDNA)
DNA 1: GACGGTATCGATAAGAGACATGCCTAGACATGCCTCTTGATATCGAATTC
DNA 2: GAATTCGATATCAAGAGGCATGTCTAGGCATGTCTCTTATCGATACCGTC
As to B6, the binding result in data set [1] (blunt) and in data set [4] was “binds” throughout.

B7: P1-22 (dsDNA)
DNA 1: GAGACATGCCTAGACATGCCTC
DNA 2: GAGGCATGTCTAGGCATGTCTC
With B7, the binding result in data set [1] (blunt) and in data set [4] was “binds” each time.

B8: Pu52 (structured_DNA)
DNA: TTGGGGCGCTTATGGGGAGGGTGGGGAGGGTGGGGAAGGTGGGGAGGAGACT
In the case of B8, the binding result (with p53CT (GSTp53CT); in data set [5]) was “binds” throughout.

B9: A25 (ssDNA)
DNA: AAAAAAAAAAAAAAAAAAAAAAAAA
For B9, in data set [1], the binding result is given as “no binding”.

The record behind these values is PMC5064454, “Wild-type p53 binds to MYC promoter G-quadruplex”.
